{"source": "paper PMC6125123", "target": "HA-K^b (H-2K^b heavy chain with an N-terminal HA tag, no GFP) (mus musculus)", "sequence (P01901 22-369)": "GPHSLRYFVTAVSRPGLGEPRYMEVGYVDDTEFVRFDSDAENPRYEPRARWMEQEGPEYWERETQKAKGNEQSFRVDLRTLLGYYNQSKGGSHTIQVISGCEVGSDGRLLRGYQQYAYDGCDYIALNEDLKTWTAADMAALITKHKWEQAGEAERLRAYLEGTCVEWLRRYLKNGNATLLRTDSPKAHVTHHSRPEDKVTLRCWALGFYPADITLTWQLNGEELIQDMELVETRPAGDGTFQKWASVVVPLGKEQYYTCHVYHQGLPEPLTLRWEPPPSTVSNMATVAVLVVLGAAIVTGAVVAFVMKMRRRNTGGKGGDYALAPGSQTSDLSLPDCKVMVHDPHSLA", "assay": "two-hybrid antibody micropattern assay (co-capture on live cells, confocal fluorescence microscopy); HA-tagged bait captured on printed anti-HA (12CA5) micropatterns on glass; GFP-tagged prey read out; co-transduced STF1 cells, 25°C overnight, then shifted to 37°C for 3-4 hr to dissociate …; no peptide", "data": [{"substance": "K^b-GFP (H-2K^b heavy chain with GFP fused to the cytoplasmic tail, no HA tag) (natural protein)", "values": [{"measurement": "ratio of GFP fluorescence intensity on pattern elements over total fluorescence intensity (background 1.1)", "value": 1.3}]}]}
